Measured values: patent US20100016226A1
“And” between values parts separate entries of the source, which are not always exact repeats. Identical values can stand only once. Where no end group is shown, it is not given here. The star is where a group is joined. 125I = [125I]*

Tests used:
[1] = molecular target: UAG binding sites on human CAC (circulating angiogenic cell) membranes (human); assay: saturation radioligand binding on CAC membranes
[2] = molecular target: UAG binding sites on human CAC (circulating angiogenic cell) membranes (human); assay: radioligand binding to fresh CAC membranes, two cell preparations
[3] = molecular target: UAG binding sites on human CAC (circulating angiogenic cell) membranes (human); assay: saturation radioligand binding on CAC membranes, Scatchard analysis
[4] = molecular target: UAG binding sites on human CAC (circulating angiogenic cell) membranes (human); assay: radioligand binding to frozen-thawed CAC membranes, two cell preparations
[5] = molecular target: UAG binding sites on human CAC (circulating angiogenic cell) membranes (human); assay: radioligand binding to CAC membranes; binding without minus binding with 100 nM unlabelled UAG

B1: [125I-Tyr4]-UAG (peptide)
peptide: GSSY(125I)LSPEHQRVQQRKESKKPPAKLQPR
Which results are given for B1?
radioligand concentration at maximal specific binding [1]: 2 nM; specific binding, fresh CAC membranes [2]: 0.25 fmol and 0.26 fmol; Bmax (fmol/mg membrane protein) [3]: 10.7; Kd [3]: 0.48 nM; specific binding, frozen-thawed CAC membranes [4]: 0.2 fmol and 0.33 fmol; specific binding, percent of control value [5]: 75%
